Results: PMC5027486 (Nucleic Acids Research, 2016)

B2: Pseudomonas aeruginosa mismatch repair protein MutS (natural protein, UniProt Q9HY08 1-855, looked up)
chain: MTDLSQHTPMMQQYFKLKHQHPDQLMFYRMGDFYELFYEDAKKAAKLLDITLTARGQSGGKAIPMAGIPFHSAEGYLAKLVKLGESVAICEQIGDPATSKGPVERQVVRIITPGTVSDEALLDERRDNLLAAILGDERLFGLAVLDITSGRFSVQEIKGWETLLAELERLNPAELLIPDDWPQGLPAEKRRGVRRRAPWDFDRDSAHKSLCQQFGTQDLKGFGCQNLTLAIGAAGCLLAYAKETQRTALPHLRSLRHDRLDDTVILDGASRRNLELDINLSGGRENTLQSVVDRCQTAMASRLMSRWLNRPLRDRAVLEARQESIACLLERYRFENLQPQLKEIGDLERILARIGLRNARPRDLARLRDALAALPDLQNAMTELEAPHLQALATTIGTYPELAELLAKAIIDNPPAVIRDGGVIKTGYDAELDELQALSENAGQFLMDLEAREKARTGLPNLKVGYNRIHGYFIELPRVQAEQAPADYIRRQTLKGAERFITPELKAFEDKALSAQSRALAREKALYEELLERLIGHLAPLQDSASALAELDVLANLAERALNLDLNRPRFVEHTCLHIEQGRHPVVEQVLETPFVANDLALDADTRMLVITGPNMGGKSTYMRQTALIVLLAHIGSFVPAARCELSLVDRIFTRIGSSDDLAGGRSTFMVEMSETANILHNATDKSLVLMDEVGRGTSTFDGLSLAWAAAEDLARTRAFTLFATHYFELTVLPESQPAVANVHLNATEHNERIVFLHHVLPGPASQSYGLAVAQLAGVPAPVIQRAREHLKRLETTSLPHEMPSQQSGKPASPMQSDLFASLPHPVIDELSRINPDDISPRQALDLLYAWKMRV
B3: Pseudomonas aeruginosa β clamp processivity factor (natural protein, UniProt Q9I7C4 1-367, looked up)
chain: MHFTIQREALLKPLQLVAGVVERRQTLPVLSNVLLVVEGQQLSLTGTDLEVELVGRVVLEDAAEPGEITVPARKLMDICKSLPNDVLIDIRVEEQKLLVKAGRSRFTLSTLPANDFPTVEEGPGSLNFSIAQSKLRRLIDRTSFAMAQQDVRYYLNGMLLEVNGGTLRSVATDGHRLAMCSLDAQIPSQDRHQVIVPRKGILELARLLTEQDGEVGIVLGQHHIRATTGEFTFTSKLVDGKFPDYERVLPRGGDKLVVGDRQQLREAFSRTAILSNEKYRGIRLQLSNGLLKIQANNPEQEEAEEEVQVEYNGGNLEIGFNVSYLLDVLGVIGTEQVRFILSDSNSSALVHEADNDDSAYVVMPMRL

Assays:
[1] = target: B3; assay: native gel or EMSA
[2] = target: B3; assay: SPR
[3] = target: B2; assay: SPR
[4] = target: B2; assay: native gel or EMSA
[5] = target: B3; assay: native gel or EMSA; remark: listed apart in the source

B1: Pseudomonas aeruginosa DNA polymerase IV (Pol IV) (enzyme, UniProt Q9I534 1-349, looked up)
chain: MRKIIHIDCDCFYAALEMRDDPSLRGKALAVGGSPDKRGVVATCSYEARAYGVRSAMAMRTALKLCPDLLVVRPRFDVYRAVSKQIHAIFRDYTDLIEPLSLDEAYLDVSASPHFAGSATRIAQDIRRRVAEELHITVSAGVAPNKFLAKIASDWRKPDGLFVITPEQVDGFVAELPVAKLHGVGKVTAERLARMGIRTCADLRQGSKLSLVREFGSFGERLWGLAHGIDERPVEVDSRRQSVSVECTFDRDLPDLAACLEELPTLLEELDGRLQRLDGSYRPDKPFVKLKFHDFTQTTVEQSGAGRDLESYRQLLGQAFARGNRPVRLIGVGVRLLDLQGAHEQLRLF
In the case of B1, the Kd [1] is reported as 6.22 ± 0.51 µM, the “stoichiometry N” value [1] is reported as 1.09 ± 0.06 and the Kd [2] is reported as 8.97 µM. For the same binder, the koff [2] was 0.0052 s⁻¹ and the kon [2] was 580 M⁻¹ s⁻¹.

B2 was tested, and the “stoichiometry N” value [1] was 4.

In the case of B3, the koff [3] is reported as 0.111 s⁻¹, the kon [3] is reported as 112000 M⁻¹ s⁻¹ and the Kd [4] is reported as 1.66 ± 0.09 µM.

B4: MQSDLFA peptide (7-mer spanning the β clamp binding motif of MutS) (peptide)
peptide: MQSDLFA
B4: binds [5].
